± gives the uncertainty stated by the source.

The text below walks through data of the Human Domainome abundance scans (Beltran et al. 2025).

Sequences and labels used below:
B1: Integrator complex subunit 12, residues 155 to 213; numbered along this chain, Q96CB8 (parent)
chain: AMEMGLACVVCRQMMVASGNQLVECQECHNLYHRDCHKPQVTDKEANDPRLVWYCARCT

The data set covers variants of B1. Description: abundance fitness (aPCA) (normalised: wild type 0, dead -1); higher = more abundant; growth selection in yeast, the domain comes from the species named. The conditions noted are these: Homo sapiens.
Turning to AMEMGLACVVCRQMMVASGNQLVECQECHNLYHRDCHKPQLTDKEANDPRLVWYCARCT [V41L], the abundance fitness is -0.011 ± 0.045.

Take AMEMGLACVVCRQMMVASGNQLQECQECHNLYHRDCHKPQVTDKEANDPRLVWYCARCT [V23Q]: the abundance fitness is -0.098 ± 0.06.

AMEMGLACVVCRQMMVASGNQLVECQECMNLYHRDCHKPQVTDKEANDPRLVWYCARCT [H29M]: the abundance fitness is -0.097 ± 0.058.

Turning to AMEMGLACVVCRQMMVASGNQLVECQEMHNLYHRDCHKPQVTDKEANDPRLVWYCARCT [C28M], the abundance fitness was -0.835 ± 0.064.

Turning to AMEMGLACVVCRQMMVASGNQLVECQEPHNLYHRDCHKPQVTDKEANDPRLVWYCARCT [C28P], the abundance fitness is -0.787 ± 0.081.

Turning to AMEMGLACVVCRQMMVASGNQHVECQECHNLYHRDCHKPQVTDKEANDPRLVWYCARCT [L22H], the abundance fitness is -0.001 ± 0.049.

In the case of AMEMGLACVVCRQMMVASGNQLVECQECHNLYHRDCHKPQVTDKEANDPNLVWYCARCT [R50N], the abundance fitness was 0.15 ± 0.12.

On to AMEMGLACVVCRQMMVASGNQLVECQECHNLYHRDCHKPQVTDKEANDPALVWYCARCT [R50A], for which the abundance fitness was 0.014 ± 0.048.

Take AMEMGLACVVCRQMMVASGNQLVECQECHNLYHRDCHKPQVTDKEANDPSLVWYCARCT [R50S]: the abundance fitness was found to be 0.057 ± 0.059.

Consider AMEMGLACVVCRQMMVASGNQLVECQECHNLYHPDCHKPQVTDKEANDPRLVWYCARCT [R34P], for which the abundance fitness amounted to 0.067 ± 0.08.

Consider AMEMGLACVVCRQMMVASGNQLVECQECHNLYHRDFHKPQVTDKEANDPRLVWYCARCT [C36F], for which the abundance fitness was -0.775 ± 0.045.

Regarding AMEMGLTCVVCRQMMVASGNQLVECQECHNLYHRDCHKPQVTDKEANDPRLVWYCARCT [A7T], the abundance fitness is 0.032 ± 0.04.

With AMEMGLACVVCTQMMVASGNQLVECQECHNLYHRDCHKPQVTDKEANDPRLVWYCARCT [R12T], the abundance fitness is -0.049 ± 0.041.

In the case of AMEMGLAEVVCRQMMVASGNQLVECQECHNLYHRDCHKPQVTDKEANDPRLVWYCARCT [C8E], the abundance fitness is -0.927 ± 0.12.

On to AMEMGLACVVCRQMMVASGNQLVECQECHNLYHRDCHKPQVTDKEANDPRDVWYCARCT [L51D], for which the abundance fitness is 0.013 ± 0.066.

With AMEMGLACVVCRQMMVASGNQLVECQECHNLYHRDCHKPQVTDKEANDPRQVWYCARCT [L51Q], the abundance fitness stood at 0.02 ± 0.055.

On to AMEMGLACVVCRQMMVASGNQLVECQECHNLYHRHCHKPQVTDKEANDPRLVWYCARCT [D35H], for which the abundance fitness was 0.071 ± 0.036.

As to AMEMGLACVVCRQMMVASGNQLVECQECHNLYHRCCHKPQVTDKEANDPRLVWYCARCT [D35C], the abundance fitness was -0.045 ± 0.033.

On to AGEMGLACVVCRQMMVASGNQLVECQECHNLYHRDCHKPQVTDKEANDPRLVWYCARCT [M2G], for which the abundance fitness was determined as 0.009 ± 0.032.

Consider AMEMGLACVVCRQMMVASGNQLVECQECHNLGHRDCHKPQVTDKEANDPRLVWYCARCT [Y32G], for which the abundance fitness was -0.335 ± 0.035.

For AMEMGLACVVCRYMMVASGNQLVECQECHNLYHRDCHKPQVTDKEANDPRLVWYCARCT [Q13Y], the abundance fitness was -0.382 ± 0.036.

Regarding AMEMGLACVVCRQMMVASGNQLVACQECHNLYHRDCHKPQVTDKEANDPRLVWYCARCT [E24A], the abundance fitness is -0.123 ± 0.049.

On to AMEMGLACVVCRQMMVASGNQLVECQECHNLYHRDCHKPQVTDKESNDPRLVWYCARCT [A46S], for which the abundance fitness is -0.075 ± 0.052.

For AMEMGLACVVCRQMMVASGNQLVECQECHNLYHRDCHKPQVTDKEANCPRLVWYCARCT [D48C], the abundance fitness was -0.265 ± 0.12.

On to AMEMGLACVVCRQMMVASGNQLVECQECHNLYHRDCHKPQVTDKEANDERLVWYCARCT [P49E], for which the abundance fitness amounted to 0.027 ± 0.05.

Take AMEMGLACVVCRQMMVASGNQLVECQECHNLYHRDCHKPQVTDKEANDPRLVWYCMRCT [A56M]: the abundance fitness was -0.02 ± 0.055.

For AMEMGLACVVCRQMMVASGNQLVECQECHNLYHRDCHKPQVTDKEANDPRLVWYCWRCT [A56W], the abundance fitness is -0.134 ± 0.05.

As for AMEMGLACVVCRQMMVASGNQLVECQECHTLYHRDCHKPQVTDKEANDPRLVWYCARCT [N30T], the abundance fitness is -0.105 ± 0.058.

For the variant AMEMGLACVVCRQMMVASGNQLVECKECHNLYHRDCHKPQVTDKEANDPRLVWYCARCT [Q26K], the abundance fitness is -0.039 ± 0.062.

As to AMEMGLACVVCRQMMVASGNQLVECTECHNLYHRDCHKPQVTDKEANDPRLVWYCARCT [Q26T], the abundance fitness was -0.052 ± 0.048.

With AMEMGLACVVCRQMDVASGNQLVECQECHNLYHRDCHKPQVTDKEANDPRLVWYCARCT [M15D], the abundance fitness came out at 0.09 ± 0.035.

AMEMGLACVVCRQMMVASGNQLVECQECHNLYHRDCHKPQVTSKEANDPRLVWYCARCT [D43S]: the abundance fitness was -0.074 ± 0.038.

As to AMEMGLACVVCRQMMVASGNQLVECQECHNLYHRDCHKPQVTNKEANDPRLVWYCARCT [D43N], the abundance fitness is 0.043 ± 0.058.

On to AMEVGLACVVCRQMMVASGNQLVECQECHNLYHRDCHKPQVTDKEANDPRLVWYCARCT [M4V], for which the abundance fitness turned out to be 0.006 ± 0.033.

In the case of AMEMGLACQVCRQMMVASGNQLVECQECHNLYHRDCHKPQVTDKEANDPRLVWYCARCT [V9Q], the abundance fitness came out at 0.051 ± 0.069.

In the case of AMEMGLACVVCRQMMVAGGNQLVECQECHNLYHRDCHKPQVTDKEANDPRLVWYCARCT [S18G], the abundance fitness is -0.002 ± 0.032.

For AMEMGLACVVCRQMMVASGNQLVECQECHNLYHRDCHKPQVTDKWANDPRLVWYCARCT [E45W], the abundance fitness is -0.248 ± 0.055.

AMEMGLACVVCRQMMVASGNQLVECQECHNLYHRDCHKPQVTDKCANDPRLVWYCARCT [E45C]: the abundance fitness was -0.111 ± 0.074.

As for AMEMGLACVVCRQMMVASGNQLVECQECHNLYHRDCHKPQVTDKNANDPRLVWYCARCT [E45N], the abundance fitness was -0.074 ± 0.1.

For AMEMGLACVVCRQMMVASRNQLVECQECHNLYHRDCHKPQVTDKEANDPRLVWYCARCT [G19R], the abundance fitness was -0.116 ± 0.039.

Regarding AMEMGLACVVCRQMMVASGNQLVECQECHNLYHRDCHKGQVTDKEANDPRLVWYCARCT [P39G], the abundance fitness was -0.28 ± 0.041.

AMEMGLACVVCRQMMVASGNQLVECQECHNLYHRDCHPPQVTDKEANDPRLVWYCARCT [K38P]: the abundance fitness was -0.309 ± 0.05.

AMEMGLACVVCRQMMVASGNQLVECQECHNLYHRDCHGPQVTDKEANDPRLVWYCARCT [K38G]: the abundance fitness is -0.15 ± 0.05.

For the variant AMEMGLACVVCRQMMVASGNQLVECQECHNLYHRDCHSPQVTDKEANDPRLVWYCARCT [K38S], the abundance fitness was 0.016 ± 0.041.

With AMEMGLACVVCRQMMVASGNQLVECQECHNLYHRDCHKPQVTDKEANDPRLVWYIARCT [C55I], the abundance fitness is -1.09 ± 0.28.
